Results on one molecule are retold here after paper PMC7806715, “Discovery of small molecules targeting the tandem tudor domain of the epigenetic factor UHRF1 using fragment-based ligand discovery” (Scientific Reports, 2021).

The target of this assay is T1, FLAG-C-UHRF1 (containing SRA, RING E3 domains and PBR, aa 414–793) (UniProt Q96T88 414-793).
T1 construct: UHRF1 C-terminal fragment with the SRA domain, PBR and RING domain, aa 414–793; Cloned into the vector pMCSG7; The methods mix the names His6-C-FLAG-UHRF1, FLAG-C-UHRF1 and C-FLAG-UHRF1; also called FLAG tagged-C-UHRF1; source: Rosetta (DE3) E. coli, purified (Nuvia IMAC, TEV protease digestion to remove the His-tag, second IMAC pass)
T1 sequence (looked up): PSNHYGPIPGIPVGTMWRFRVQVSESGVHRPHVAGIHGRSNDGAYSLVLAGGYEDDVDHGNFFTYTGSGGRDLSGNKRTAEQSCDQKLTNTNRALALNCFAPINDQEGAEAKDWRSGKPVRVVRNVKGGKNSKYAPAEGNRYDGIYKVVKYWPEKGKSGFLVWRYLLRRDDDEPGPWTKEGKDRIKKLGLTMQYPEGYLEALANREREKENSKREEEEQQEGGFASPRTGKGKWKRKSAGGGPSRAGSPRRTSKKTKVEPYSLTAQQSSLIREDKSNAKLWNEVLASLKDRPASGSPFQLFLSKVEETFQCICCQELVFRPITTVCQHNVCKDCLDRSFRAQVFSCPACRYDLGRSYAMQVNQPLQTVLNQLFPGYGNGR
Description: AlphaScreen or HTRF; AlphaScreen: 300 nM biotinylated-His-Avitag-N-UHRF1 on streptavidin donor beads, 300 nM FLAG-C-UHRF1 on anti-FLAG acceptor beads; 50 mM HEPES pH 6.5 (screen) or 50 mM sodium phosphate pH 7 (dose response), 150 mM NaCl, 0.1% Triton X-100, 1 mM DTT; room temperature; inhibition by fragments or histone peptides. The note with it: both partners purified.

B1: biotinylated-His-AviTag-N-UHRF1 (containing UBL and TTD, aa 1–285) (domain or fragment, UniProt Q96T88 1-285, looked up)
chain: MWIQVRTMDGRQTHTVDSLSRLTKVEELRRKIQELFHVEPGLQRLFYRGKQMEDGHTLFDYEVRLNDTIQLLVRQSLVLPHSTKERDSELSDTDSGCCLGQSESDKSSTHGEAAAETDSRPADEDMWDETELGLYKVNEYVDARDTNMGAWFEAQVVRVTRKAPSRDEPCSSTSRPALEEDVIYHVKYDDYPENGVVQMNSRDVRARARTIIKWQDLEVGQVVMLNYNPDNPKERGFWYDAEISRKRETRTARELYANVVLGDDSLNDCRIIFVDEVFKIERPGE
modifications: biotin on the AviTag
notes: Cloned into the vector pMCSG51; also called biotinylated-AviTag-N-UHRF1
As for B1, the binding result is “binds”.
